Laboratory results: paper PMC11324310

Molecular target: C-t FLAG-tagged WT-RELN (mouse) (UniProt Q60841)
Assay: immunoblot in non-reducing conditions (SDS-PAGE); culture media of HEK293T cells coexpressing FLAG-WT-RELN and monoallelic variants; non-reducing conditions

stoichiometry N: 2
Substance: C-t FLAG-tagged WT-RELN, Q60841 27-3461
